Experiment [1] addresses mutant IgG4 with Pro222 (human). In words: AUC; sedimentation velocity, 40,000 rpm, SEDFIT c(s) analysis with integration of the monomer and dimer peaks; IgG4(Ser222) 0.5-8 mg/ml in PBS-50, PBS-137 and PBS-250 in H2O at 20 °C and in PBS-137 in 2H2O at 6, 20 and 30 °C; IgG4(Pro222) 0.5-2.5 mg/ml in PBS-137 in H2O at 20 °C; pH 7.4; dimer to monomers.
For experiment [2], the target named is wild-type human-mouse chimera IgG4 B72.3 with Ser222 (human). Described as above.

From paper PMC4110284 come the findings set out here.

Consider mutant IgG4 with Pro222 (antibody), for which, in experiment [1], the percent dimer is 2 to 3% and the stoichiometry N (usually the number of molecules, sites or subunits per partner or assembly) was found to be 2.

B1: wild-type human-mouse chimera IgG4 B72.3 with Ser222 (antibody, V domains shown)
VH: QVQLQQSDAELVKPGASVKISCKASGYTFTDHAIHWAKQKPEQGLEWIGYISPGNDDIKYNEKFKGKATLTADKSSSTAYMQLNSLTSEDSAVYFCKRSYYGHWGQGTTLTVSS
VL: DIQMTQSPASLSVSVGETVTITCRASENIYSNLAWYQQKQGKSPQLLVYAATNLADGVPSRFSGSGSGTQYSLKINSLQSEDFGSYYCQHFWGTPYTFGGGTRLEIK
In the case of B1, in experiment [2], the dissociation constant Kd (in general, the free concentration of one partner at which half of the binding sites on the other are occupied at equilibrium, for simple one-to-one binding) lay in the range of 0.6 to 3 mM; the percent dimer lay within 1 to 3%; the stoichiometry N is 2.
